Patent US20020110800

Target: wild-type TrkA, baculovirus-expressed, activated (autophosphorylated) (UniProt P04629)

B1: SHP-2 (enzyme, UniProt Q06124 2-593, looked up, species assumed)
Tyrosine-protein phosphatase non-receptor type 11: TSRRWFHPNITGVEAENLLLTRGVDGSFLARPSKSNPGDFTLSVRRNGAVTHIKIQNTGDYYDLYGGEKFATLAELVQYYMEHHGQLKEKNGDVIELKYPLNCADPTSERWFHGHLSGKEAEKLLTEKGKHGSFLVRESQSHPGDFVLSVRTGDDKGESNDGKSKVTHVMIRCQELKYDVGGGERFDSLTDLVEHYKKNPMVETLGTVLQLKQPLNTTRINAAEIESRVRELSKLAETTDKVKQGFWEEFETLQQQECKLLYSRKEGQRQENKNKNRYKNILPFDHTRVVLHDGDPNEPVSDYINANIIMPEFETKCNNSKPKKSYIATQGCLQNTVNDFWRMVFQENSRVIVMTTKEVERGKSKCVKYWPDEYALKEYGVMRVRNVKESAAHDYTLRELKLSKVGQGNTERTVWQYHFRTWPDHGVPSDPGGVLDFLEEVHHKQESIMDAGPVVVHCSAGIGRTGTFIVIDILIDIIREKGVDCDIDVPKTIQMVRSQRSGMVQTEAQYRFIYMAVQHYIETLQRRIEEEQKSKRKGHEYTNIKYSLADQTSGDQSPLPPCTPTPPCAEMREDSARVYENVGLMQQQKSFR
- dephosphorylation of 32P-autophosphorylated Trk in vitro: approximately 5-fold dephosphorylation
